Legend:
APG05405 (Bacillus sp.) = tested on: T1, APG05405 (Bacillus sp.); assay: cleavage_in_vitro; details: trans cleavage
T1 sequence: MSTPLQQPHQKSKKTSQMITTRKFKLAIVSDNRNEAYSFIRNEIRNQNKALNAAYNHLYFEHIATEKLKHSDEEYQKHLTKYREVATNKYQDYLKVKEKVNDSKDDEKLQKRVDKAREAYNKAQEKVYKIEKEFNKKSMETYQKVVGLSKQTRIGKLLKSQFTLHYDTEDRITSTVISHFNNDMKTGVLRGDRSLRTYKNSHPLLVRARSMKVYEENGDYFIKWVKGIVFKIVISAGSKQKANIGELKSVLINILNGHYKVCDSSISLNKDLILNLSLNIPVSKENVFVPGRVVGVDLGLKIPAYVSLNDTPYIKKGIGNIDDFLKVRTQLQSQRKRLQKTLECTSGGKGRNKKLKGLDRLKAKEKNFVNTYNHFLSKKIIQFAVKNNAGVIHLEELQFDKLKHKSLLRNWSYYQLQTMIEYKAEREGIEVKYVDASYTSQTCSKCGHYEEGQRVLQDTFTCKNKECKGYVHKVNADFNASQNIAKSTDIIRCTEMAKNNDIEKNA

APG09624 = biological target: T2, APG09624 (Bacillus sp.); assay: thermal shift; peaks 39 and 44 C vs 38 C without RNA; details: tags: C-terminal His10
T2 chain: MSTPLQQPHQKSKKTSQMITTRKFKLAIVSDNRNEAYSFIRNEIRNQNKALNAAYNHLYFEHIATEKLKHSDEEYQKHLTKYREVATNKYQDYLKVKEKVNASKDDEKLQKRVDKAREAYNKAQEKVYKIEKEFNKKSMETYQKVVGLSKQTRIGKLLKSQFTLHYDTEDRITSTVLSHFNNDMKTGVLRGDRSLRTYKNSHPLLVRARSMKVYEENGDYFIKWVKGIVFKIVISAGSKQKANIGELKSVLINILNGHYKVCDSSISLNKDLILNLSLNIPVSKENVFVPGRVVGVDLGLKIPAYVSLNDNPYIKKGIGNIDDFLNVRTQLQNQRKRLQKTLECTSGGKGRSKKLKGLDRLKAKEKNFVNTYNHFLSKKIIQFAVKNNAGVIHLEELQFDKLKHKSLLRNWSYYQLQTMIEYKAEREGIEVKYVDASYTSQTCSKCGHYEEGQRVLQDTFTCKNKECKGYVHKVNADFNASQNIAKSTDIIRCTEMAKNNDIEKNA
Protocol: (§1) RNA binding was confirmed by differential scanning fluorimetry (Niesen, F.H., H. Berglund, and M. Vedadi. 2007. Nat. Protoc. 2: 2212-2221). Dual RNA complexes were produced by mixing an excess of crRNA with tracrRNA in Annealing Buffer (Synthego, 60 mM KCl 6 mM HEPES pH 7). The candidate effector protein and guide RNA (either dual RNA complex or sgRNA) were incubated at final concentrations of 0.5 µM effector protein and 1 µM guide RNA in phosphate buffered saline (PBS, Thermo Fisher). These were incubated for 20 minutes at room temperature and then mixed 1:1 with Sypro Orange dye solution that had been diluted in PBS. A melt curve was obtained measuring fluorescence intensity (FI) as a function of temperature and the first derivative of the melt curve (dFI/dT) was calculated. A shift in the plot of dFI/dT as a function of temperature of the putative RNP relative to the original nuclease indicates RNA binding and was used to evaluate putative guide RNA combinations. […] Peak 1 refers to the temperature associated with the largest observed peak for the given sample. If a second peak is observed, it is indicated in the Peak 2 column. Interpretation of the data regarding the formation of a complex is indicated in the “Binding?” column Table 3. “Yes” indicates binding was observed. “N/A” indicates sufficient data was not available to determine if binding could occur.

APG05405 = biological target: T3, APG05405 (Bacillus sp.); assay: thermal shift; peak 43 C vs 36 C without RNA; details: tags: C-terminal His10
T3 chain: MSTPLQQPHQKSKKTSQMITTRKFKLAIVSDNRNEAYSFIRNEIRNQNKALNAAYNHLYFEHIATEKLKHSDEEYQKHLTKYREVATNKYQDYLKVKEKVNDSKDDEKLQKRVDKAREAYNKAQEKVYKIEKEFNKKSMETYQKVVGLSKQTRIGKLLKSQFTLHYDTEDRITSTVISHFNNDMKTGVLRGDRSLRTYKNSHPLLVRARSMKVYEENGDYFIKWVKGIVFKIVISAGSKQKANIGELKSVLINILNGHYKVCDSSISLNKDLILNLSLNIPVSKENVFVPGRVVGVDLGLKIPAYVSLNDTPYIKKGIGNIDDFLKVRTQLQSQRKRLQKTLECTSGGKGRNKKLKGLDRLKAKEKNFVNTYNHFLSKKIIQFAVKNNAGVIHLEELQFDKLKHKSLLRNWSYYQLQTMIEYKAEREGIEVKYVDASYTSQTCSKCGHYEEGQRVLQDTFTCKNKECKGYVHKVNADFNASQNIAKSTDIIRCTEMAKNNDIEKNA
Protocol: as §1

GGGAAACAGCUAGAAUGUAACUUAAAGUAGGUCAAUGUUUAAAUUCGAUGUUGCAAUUUGUUUGGACAAGUGGAUUAAAACGUUCCUUGAAAAUCAUAUAAAGCAGCCAGUUUACGGGCUUGGGCGAAUUUGCGUCCAAAGGGUGAGGCCAGGUGUAAGUAAGAACCUACAAAAGCACUCACCAAAGGGUCAAAAAGAUCCUACAUGGAUGUGAGGAUUGAAAUACUACAACAGCCACAACG / TCGTCGGCAGCGTCAGATGTGTATAAGAGACAGAACGACGGCCAGTGAATTNNNNNNNNACTACAACAGCCACAACGTCTATATCATGGGATCCTCTAGAGTCGACCTGCTGTCTCTTATACACATCTCCGAGCCCACGAGAC / GTCTCGTGGGCTCGGAGATGTGTATAAGAGACAGCAGGTCGACTCTAGAGGATCCCATGATATAGACGTTGTGGCTGTTGTAGTNNNNNNNNAATTCACTGGCCGTCGTTCTGTCTCTTATACACATCTGACGCTGCCGACGA [sgRNA Gsg.2 ; dsPCR2]
activity (APG05405 (Bacillus sp.); NEBuffer 2, 37 C, degenerate 8 bp 5' of target, PAM not determined): 768 AU/min

GGGAAACAGCUAGAAUGUAACUUAAAGUAGGUCAAUGUUUAAAUUCGAUGUUGCAAUUUGUUUGGACAAGUGGAUUAAAACGUUCCUUGAAAAUCAUAUAAAGCAGCCAGUUUACGGGCUUGGGCGAAUUUGCGUCCAAAGGGUGAGGCCAGGUGUAAGUAAGAACCUACAAAAGCACUCACCAAAGGGUCAAAAAGAUCCUACAUGGAUGUGAGGAUUGAAAUACUACAACAGCCACAACG / TCGTCGGCAGCGTCAGATGTGTATAAGAGACAGAACGACGGCCAGTGAATTNNNNNTGGAATGGGAACTAAAGTAATGGCAAACGAATTCGTAGGATCCTCTAGAGTCGACCTGCTGTCTCTTATACACATCTCCGAGCCCACGAGAC / GTCTCGTGGGCTCGGAGATGTGTATAAGAGACAGCAGGTCGACTCTAGAGGATCCTACGAATTCGTTTGCCATTACTTTAGTTCCCATTCCANNNNNAATTCACTGGCCGTCGTTCTGTCTCTTATACACATCTGACGCTGCCGACGA [sgRNA Gsg.2 ; dsPCR3]
activity (APG05405 (Bacillus sp.); non-matching guide): 102 AU/min

GGGAAACAGCUAGAAUGUAACUUAAAGUAGGUCAAUGUUUAAAUUCGAUGUUGCAAUUUGUUUGGACAAGUGGAUUAAAACGUUCCUUGAAAAUCAUAUAAAGCAGCCAGUUUACGGGCUUGGGCGAAUUUGCGUCCAAAGGGUGAGGCCAGGUGUAAGUAAGAACCUACAAAAGCACUCACCAAAGGGUCAAAAAGAUCCUACAUGGAUGUGAGGAUUGAAAUUGGAAUGGGAACUAAAGU / TCGTCGGCAGCGTCAGATGTGTATAAGAGACAGAACGACGGCCAGTGAATTNNNNNNNNACTACAACAGCCACAACGTCTATATCATGGGATCCTCTAGAGTCGACCTGCTGTCTCTTATACACATCTCCGAGCCCACGAGAC / GTCTCGTGGGCTCGGAGATGTGTATAAGAGACAGCAGGTCGACTCTAGAGGATCCCATGATATAGACGTTGTGGCTGTTGTAGTNNNNNNNNAATTCACTGGCCGTCGTTCTGTCTCTTATACACATCTGACGCTGCCGACGA [sgRNA Gsg.3 ; dsPCR2]
activity (APG05405 (Bacillus sp.); non-matching guide): 78 AU/min

GGGAAACAGCUAGAAUGUAACUUAAAGUAGGUCAAUGUUUAAAUUCGAUGUUGCAAUUUGUUUGGACAAGUGGAUUAAAACGUUCCUUGAAAAUCAUAUAAAGCAGCCAGUUUACGGGCUUGGGCGAAUUUGCGUCCAAAGGGUGAGGCCAGGUGUAAGUAAGAACCUACAAAAGCACUCACCAAAGGGUCAAAAAGAUCCUACAUGGAUGUGAGGAUUGAAAUUGGAAUGGGAACUAAAGU / TCGTCGGCAGCGTCAGATGTGTATAAGAGACAGAACGACGGCCAGTGAATTNNNNNTGGAATGGGAACTAAAGTAATGGCAAACGAATTCGTAGGATCCTCTAGAGTCGACCTGCTGTCTCTTATACACATCTCCGAGCCCACGAGAC / GTCTCGTGGGCTCGGAGATGTGTATAAGAGACAGCAGGTCGACTCTAGAGGATCCTACGAATTCGTTTGCCATTACTTTAGTTCCCATTCCANNNNNAATTCACTGGCCGTCGTTCTGTCTCTTATACACATCTGACGCTGCCGACGA [sgRNA Gsg.3 ; dsPCR3]
activity (APG05405 (Bacillus sp.); NEBuffer 2, 37 C, degenerate 5 bp 5' of target, PAM not determined): 780 AU/min

B1: crRNA 143 + tracrRNA 145 (ssRNA)
RNA 1: GUCACAUCCUACAUGGAUGUGAGGAUUGAAAUUGGAAUGGGAACUAAAGUAAUGG
RNA 2: AAACAGCUAGAAUGUAACUUAAAGUAGGUCAAUGUUUAAAUUCGAUGUUGCAAUUUGUUUGGACAAGUGGAUUAAAACGUUCCUUGAAAAUCAUAUAAAGCAGCCAGUUUACGGGCUUGGGCGAAUUUGCGUCCAAAGGGUGAGGCCAGGUGUAAGUAAGAACCUACAAAAGCACUCACCAAAGGGUCAACUCGAUACAUU
binding result (APG09624): binds | binding result (APG05405): binds

Source: patent US20230203463, “RNA-GUIDED NUCLEASES AND ACTIVE FRAGMENTS AND VARIANTS THEREOF AND METHODS OF USE” (LifeEDIT Therapeutics, Inc., published 2023)
